Source: article PMC12615762

Substrate: NCCC(=O)N[C@@H](Cc1cnc[nH]1)C(=O)O
Assay: purified protein
Conditions: SAM

B1: carnosine N-methyltransferase (CNMT, CARNMT1, C9orf41) (Homo sapiens) (protein)
chain: MQRRRRPPPPTSRLPEGCGGGGGGSEEVEVQFSAGRWGSAAAVSAAAAAATRSTEEEEERLEREHFWKIINAFRYYGTSMHERVNRTERQFRSLPANQQKLLPQFLLHLDKIRKCIDHNQEILLTIVNDCIHMFENKEYGEDGNGKIMPASTFDMDKLKSTLKQFVRDWSETGKAERDACYQPIIKEILKNFPKERWDPSKVNILVPGAGLGRLAWEIAMLGYACQGNEWSFFMLFSSNFVLNRCSEINKYKLYPWIHQFSNNRRSADQIRPIFFPDVDPHSLPPGSNFSMTAGDFQEIYSECNTWDCIATCFFIDTAHNVIDYIDTIWKILKPGGIWINLGPLLYHFENLANELSIELSYEDIKNVVLQYGFKVEVEKESVLSTYTVNDLSMMKYYYECVLFVVRKPQ
- Km: 4.631 µM
